Measured values published in patent US20200102347A1 (AUCTUS BIOLOGIES, published 2020).
Numbering of substitutions follows the chain as printed. Names may count otherwise. No end group written: not given here. *: point of attachment. RhodamineB = CCN(CC)c1ccc2c(-c3ccccc3C(=O)*)c3ccc(=[N+](CC)CC)cc-3oc2c1

B1: Nterminally_tagged_NativeRPtag(large)_tagRFP (other)
chain: MGSSSQDPNSSSMKEGKTIGLVISTLNNPFFVTLKNGAEEKAKELGYKIIVEDSQNDSSKELSNVEDLIQQKVDVLLINPVDSDAVVTAIKEANSKNIPVITIDRSANGGDVVSHIASDNVKGGEMAAEFIAKALKGKGNVVELEGIPGASAARDRGKGFDEAIAKYPDIKIVAKQAADFDRSKGLSVMENILQAQPKIDAVFAQNDEMALGAIKAIEAANRQGIIVVGFDGTEDALKAIKEGKMAATIAQQPALMGSLGVEMADKYLKGSENLYFQGGSMVSKGEELIKENMHMKLYMEGTVNNHHFKCTSEGEGKPYEGTQTMRIKVVEGGPLPFAFDILATSFMYGSRTFINHTQGIPDFFKQSFPEGFTWERVTTYEDGGVLTATQDTSLQDGCLIYNVKIRGVNFPSNGPVMQKKTLGWEANTEMLYPADGGLEGRSDMALKLVGGGHLICNFKTTYRSKKPAKNLKMPGVYYVDHRLERIKEADKETYVEQHEVAVARYCDLPSKLGHKLNGSSGHHHHHHHH
notes: Fusion of RPtag(large), TEV site, tagRFP and 8XHis
B2: Cterminally_tagged_NativeRPtag(large)_tagRFP (other)
chain: MGSSHHHHHHHHGSMVSKGEELIKENMHMKLYMEGTVNNHHFKCTSEGEGKPYEGTQTMRIKVVEGGPLPFAFDILATSFMYGSRTFINHTQGIPDFFKQSFPEGFTWERVTTYEDGGVLTATQDTSLQDGCLIYNVKIRGVNFPSNGPVMQKKTLGWEANTEMLYPADGGLEGRSDMALKLVGGGHLICNFKTTYRSKKPAKNLKMPGVYYVDHRLERIKEADKETYVEQHEVAVARYCDLPSKLGHKLNGSSGENLYFQGGSSQDPNSSSMKEGKTIGLVISTLNNPFFVTLKNGAEEKAKELGYKIIVEDSQNDSSKELSNVEDLIQQKVDVLLINPVDSDAVVTAIKEANSKNIPVITIDRSANGGDVVSHIASDNVKGGEMAAEFIAKALKGKGNVVELEGIPGASAARDRGKGFDEAIAKYPDIKIVAKQAADFDRSKGLSVMENILQAQPKIDAVFAQNDEMALGAIKAIEAANRQGIIVVGFDGTEDALKAIKEGKMAATIAQQPALMGSLGVEMADKYLK
notes: Fusion of 8XHis, tagRFP, TEV site and RPtag(large)
B3: RPtag(large) f137d (designed binder)
chain: MGSSCHHHHHHSQDPNSSSMKEGKTIGLVISTLNNPFFVTLKNGAEEKAKELGYKIIVEDSQNDSSKELSNVEDLIQQKVDVLLINPVDSDAVVTAIKEANSKNIPVITIDRSANGGDVVSHIASDNVKGGEMAAEDIAKALKGKGNVVELEGIPGASAARDRGKGFDEAIAKYPDIKIVAKQAADFDRSKGLSVMENILQAQPKIDAVFAQNDEMALGAIKAIEAANRQGIIVVGFDGTEDALKAIKEGKMAATIAQQPALMGSLGVEMADKYLK
notes: also called F137D RPtag(large)
B4: k129y (designed binder)
single chain: B3 chain with K129Y, D137F
notes: also called RPtag(large) K129Y
B5: h122f (designed binder)
single chain: B3 chain with H122F, D137F
notes: also called RPtag(large) H122F
B6: f137e (designed binder)
single chain: B3 chain with D137E
notes: single mutant of RPtag large; also called RPtag(large) F137E
B7: m270e (designed binder)
single chain: B3 chain with D137F, M270E
notes: also called RPtag(large) M270E
B8: k129a (designed binder)
single chain: B3 chain with K129A, D137F
notes: also called RPtag(large) K129A
B9: m270n (designed binder)
single chain: B3 chain with D137F, M270N
notes: also called RPtag(large) M270N
B10: f137t (designed binder)
single chain: B3 chain with D137T
notes: also called RPtag(large) F137T
B11: k129f (designed binder)
single chain: B3 chain with K129F, D137F
notes: also called RPtag(large) K129F
B12: f137s (designed binder)
single chain: B3 chain with D137S
notes: also called RPtag(large) F137S
B13: m270r (designed binder)
single chain: B3 chain with D137F, M270R
notes: also called RPtag(large) M270R
B14: m270k (designed binder)
single chain: B3 chain with D137F, M270K
notes: also called RPtag(large) M270K
B15: g130v (designed binder)
single chain: B3 chain with G130V, D137F
notes: also called RPtag(large) G130V
B16: h122l (designed binder)
single chain: B3 chain with H122L, D137F
notes: also called RPtag(large) H122L
B17: g130a (designed binder)
single chain: B3 chain with G130A, D137F
notes: also called RPtag(large) G130A
B18: h122a (designed binder)
single chain: B3 chain with H122A, D137F
notes: also called RPtag(large) H122A
B19: h122w (designed binder)
single chain: B3 chain with H122W, D137F
notes: also called RPtag(large) H122W
B20: k129h (designed binder)
single chain: B3 chain with K129H, D137F
notes: also called RPtag(large) K129H
B21: Cterminally_tagged_NativeRPtag(small)_tagRFP (other)
chain: MGSSHHHHHHHHGSMVSKGEELIKENMHMKLYMEGTVNNHHFKCTSEGEGKPYEGTQTMRIKVVEGGPLPFAFDILATSFMYGSRTFINHTQGIPDFFKQSFPEGFTWERVTTYEDGGVLTATQDTSLQDGCLIYNVKIRGVNFPSNGPVMQKKTLGWEANTEMLYPADGGLEGRSDMALKLVGGGHLICNFKTTYRSKKPAKNLKMPGVYYVDHRLERIKEADKETYVEQHEVAVARYCDLPSKLGHKLNGSSGENLYFQGGSGEKIPNFIPAELKLITKENVQGS
notes: Fusion of 8XHis, tagRFP, TEV site and RPtag(small)
B22: Nterminally tagged NativeRPtag(small)_tagRFP (other)
chain: MGSSGEKIPNFIPAELKLITKENVQGSENLYFQGGSMVSKGEELIKENMHMKLYMEGTVNNHHFKCTSEGEGKPYEGTQTMRIKVVEGGPLPFAFDILATSFMYGSRTFINHTQGIPDFFKQSFPEGFTWERVTTYEDGGVLTATQDTSLQDGCLIYNVKIRGVNFPSNGPVMQKKTLGWEANTEMLYPADGGLEGRSDMALKLVGGGHLICNFKTTYRSKKPAKNLKMPGVYYVDHRLERIKEADKETYVEQHEVAVARYCDLPSKLGHKLNGSSGHHHHHHHH
notes: Fusion of RPtag(small), TEV site, tagRFP and 8XHis

Target: T1, NativeRPtag small for immobilization (Thermoanaerobacter tengcongensis, C-terminal Cys (GGC) coupled to SulfoLink agarose resin)
T1 construct: also called immobilized RPtag (small)
T1 peptide: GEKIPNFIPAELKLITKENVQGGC
Assay: column binding; 25 mL of 1 µM tagRFP fusion applied to immobilized RPtag (small), washed with 10 mL TNE buffer, photographed
Description: (§1) After purification of the tagged proteins, each was applied to its complementary column to evaluate binding. […] Briefly, columns were first equilibrated in 20 mM Tris pH 8.0, 150 mM NaCl, 1 mM EDTA (TNE buffer), then 25 mL of 1 μM tagged protein in TNE buffer was applied to the column at a flow rate of 1 ml/min, then washed with 10 mL of TNE buffer. Columns were cleaned with 10 mL 100 mM Glycine pH 1.5 between uses.
(§2) Briefly, columns were equilibrated in 20 mM Tris pH 8.0, 150 mM NaCl, 1 mM EDTA (TEN buffer), then 25 mL of 1 μM tagged protein in TEN buffer was applied to the column at a flow rate of 1 ml/min. Thereafter, the column was washed with 10 mL of TEN buffer, and the results recorded by photograph (FIG. 8). Columns were cleaned with 10 mL 100 mM Glycine pH 1.5 between uses.

Binder | binding result
B1 | binds
B2 | binds

Target: T2, MaturePDGF-β_NterminalPeptide
T2 construct: an N-terminal G was added and is left out of the numbering; also called PDGF-β peptide
T2 peptide: RhodamineB-GSLGSLTIAEPAMIAE
Assay: fluorescence anisotropy; 20 nM rhodamine PDGF-β N-terminal peptide, unlabeled RPtag large variant titrated; bar of Ka = 1/Kd, left axis
Description: (§3) After the incubation, fluorescence anisotropy was measured, and the resultant curves were fit with the equation f=y0+(ymax−y0)*(Ptot+x+Kd−sqrt((Ptot+x+Kd)\hat{ }2−4*Ptot*x))/(2*Ptot), where y0 is the baseline anisotropy, ymax is the maximum anisotropy, Ptot is the fixed concentration of labeled peptide used, x is the variable concentration of protein used, and Kd is the measured Kd. […] Buffer was 50 mM Tris pH 8.0, 0.005% Tween20.

Binder | binding result
B3 | binds
B4 | binds
B5 | binds
B6 | binds
B7 | binds
B8 | binds
B9 | binds
B10 | binds
B11 | binds
B12 | binds
B13 | binds
B14 | binds
B15 | binds
B16 | binds
B17 | binds
B18 | binds
B19 | binds
B20 | binds

Target: T3, NativeRPtag(large)_with_Tags_and_Cys (Thermoanaerobacter tengcongensis)
T3 construct: Unlabeled in anisotropy assays; coupled through the engineered N-terminal Cys to SulfoLink agarose or maleimide plates in column, pull-down and ELISA assays
T3 chain: B3 chain with D137F
Assay: column binding; non-complementary tagRFP fusion applied to immobilized RPtag (large), washed, photographed

Binder | binding result
B1 | no binding (tested: 1 µM (25 mL applied))
B2 | no binding (tested: 1 µM (25 mL applied))

Target: T4, RPtag(small) Nd2, Cd4 (Thermoanaerobacter tengcongensis)
T4 peptide: RhodamineB-KIPNFIPAELKLITK
Assay: fluorescence anisotropy; 2 nM rhodamine Nd2Cd4, unlabeled RPtag large variant titrated; bar of Ka = 1/Kd, right axis
Description: as §3

Binder | binding result
B3 | binds
B4 | binds
B5 | binds
B6 | binds
B7 | binds
B8 | binds
B9 | binds
B10 | binds
B11 | binds
B12 | binds
B13 | binds
B14 | binds
B15 | binds
B16 | binds
B17 | binds
B18 | binds
B19 | binds
B20 | binds

Target: T5, RPtag(small) l14a (Thermoanaerobacter tengcongensis, N-terminal rhodamine)
T5 peptide: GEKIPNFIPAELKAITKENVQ
Assay: fluorescence anisotropy; 1 nM rhodamine RPtag small peptide, unlabeled RPtag large titrated, 1 h; 50 mM Tris pH 8.0, 0.005% Tween20; bar of Ka = 1/Kd
Description: (§4) Resultant curves were fit with the equation f=y0+(ymax−y0)*(Ptot+x+Kd−sqrt((Ptot+x+Kd)\hat{ }2−4*Ptot*x))/(2*Ptot), where y0 is the baseline anisotropy, ymax is the maximum anisotropy, Ptot is the fixed concentration of labeled peptide used, x is the variable concentration of protein used, and Kd is the measured Kd. […] Buffer was 50 mM Tris pH 8.0, 0.005% tween20.

Binder | binding result
B3 | binds
B6 | binds

Target: T6, native RPtag(small) (Thermoanaerobacter tengcongensis, N-terminal rhodamine)
T6 construct: Synthetic peptide
T6 peptide: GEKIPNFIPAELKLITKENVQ
Assay: as above
Description: as §4

Binder | binding result
B3 | binds
B6 | binds

Target: T7, RPtag(small) l14k (Thermoanaerobacter tengcongensis, N-terminal rhodamine)
T7 construct: also called L14K RPtag(small)
T7 peptide: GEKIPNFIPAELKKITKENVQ
Assay: as above
Description: as §4

Binder | binding result
B3 | binds
B6 | binds

Target: T3, NativeRPtag(large)_with_Tags_and_Cys
Assay: column binding; 25 mL of 1 µM tagRFP fusion applied to immobilized RPtag (large), washed with 10 mL TNE buffer, photographed
Description: as §1, §2

Binder | binding result
B21 | binds
B22 | binds

Target: T1, NativeRPtag small for immobilization
Assay: column binding; non-complementary tagRFP fusion applied to immobilized RPtag (small), washed, photographed

Binder | binding result
B21 | no binding (tested: 1 µM (25 mL applied))
B22 | no binding (tested: 1 µM (25 mL applied))
